Experimental data as given in IntAct's records for PubMed 21784946.

B1: Cell division protein FtsL (Escherichia coli (strain K12)), P0AEN4 (parent)
chain: MISRVTEALSKVKGSMGSHERHALPGVIGDDLLRFGKLPLCLFICIILTAVTVVTTAHHTRLLTAQREQLVLERDALDIEWRNLILEENALGDHSRVERIATEKLQMQHVDPSQENIVVQK
partner: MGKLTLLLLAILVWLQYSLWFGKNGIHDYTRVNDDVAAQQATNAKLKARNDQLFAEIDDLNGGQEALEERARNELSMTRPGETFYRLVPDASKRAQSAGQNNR
B2: Cell division protein FtsB (Escherichia coli (strain K12)), P0A6S5 (parent)
chain: B1 partner
partner: B1 chain

Variants of: B1
Conditions: with ftsb_ecoli ftsB, P0A6S5

Variant	effect of a mutation on the interaction
MISRVTEALSKVKGSMGSHERHALPGVIGDDLLRFGKLPLCLFICIILTAVTVVTTAHHTRLATAQREQAVLERDAADIEWRNAILEENALGDHSRVERIATEKLQMQHVDPSQENIVVQK [L63A;L70A;L77A;L84A]	decreasing interaction strength

Variants of: B2
Conditions: with ftsl_ecoli ftsL, P0AEN4

Variant	effect of a mutation on the interaction
MGKLTLLLLAILVWLQYSLWFGKNGIHDYTRVNDDVAAQQATNAKAKARNDQAFAEIDDANGGQEAAEERARNELSMTRPGETFYRLVPDASKRAQSAGQNNR [L46A;L53A;L60A;L67A]	decreasing interaction

Variants of: B2
Conditions: with ftsl_ecoli ftsL

Variant	effect of a mutation on the interaction
MGKLTLLLLAILVWLQYSLWFGKNGIHDYTRVNDDVAAQQATNAKAKARNDQAFAEIDDANGGQEAAEERARNELSMTRPGETFYRLVPDASKRAQSAGQNNR [L46A;L53A;L60A;L67A]	decreasing interaction
